Source: patent publication US20240360223A1 (DRAGONFLY THERAPEUTICS, published 2024)
Numbering of substitutions follows the chain as printed. Values joined by “and” are separate entries in the source; they are usually repeats but may differ in a detail not shown here. Equal values may be shown once.

Assays:
[1] = biological target: T1, human BAFF-R expressed on cells (human, UniProt Q96RJ3 1-184); test: cell-based or functional assay
[2] = biological target: T2, human NKG2D (recombinant mFc-tagged dimer) (human, UniProt P26718 78-216); test: SPR, steady state, control
T2 construct: also called hNKG2D
T2 sequence (looked up): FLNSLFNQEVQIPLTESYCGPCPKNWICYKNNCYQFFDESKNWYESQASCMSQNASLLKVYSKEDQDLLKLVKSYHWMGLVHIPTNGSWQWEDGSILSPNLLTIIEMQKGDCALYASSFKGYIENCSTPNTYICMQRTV

human CD64 = biological target: T3, human CD64 (human, UniProt P12314 16-288, limits assumed); test: SPR, recombinant receptor; reference trastuzumab
T3 construct: also called FcγRI
T3 sequence (P12314 16-288 limits assumed): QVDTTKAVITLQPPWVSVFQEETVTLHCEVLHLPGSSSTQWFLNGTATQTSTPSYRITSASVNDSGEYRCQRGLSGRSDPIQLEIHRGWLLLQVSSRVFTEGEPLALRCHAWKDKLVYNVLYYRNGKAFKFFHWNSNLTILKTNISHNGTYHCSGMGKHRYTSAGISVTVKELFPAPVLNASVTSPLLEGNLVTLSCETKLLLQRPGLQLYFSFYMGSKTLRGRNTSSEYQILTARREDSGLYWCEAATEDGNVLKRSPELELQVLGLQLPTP

human CD32b [3] = biological target: T4, human CD32b (human, UniProt P31994 46-217, limits assumed); test: SPR, recombinant receptor; reference trastuzumab
T4 construct: also called FcγRIIb
T4 sequence (looked up): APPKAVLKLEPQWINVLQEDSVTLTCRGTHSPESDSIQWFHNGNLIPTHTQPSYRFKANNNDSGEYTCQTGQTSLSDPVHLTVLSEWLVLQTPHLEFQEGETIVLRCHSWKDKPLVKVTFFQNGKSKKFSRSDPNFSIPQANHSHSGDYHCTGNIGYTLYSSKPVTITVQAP

human CD16a F158 [4] = biological target: T5, human CD16a F158 (human, UniProt P08637 17-208); test: SPR, recombinant receptor; reference trastuzumab
T5 sequence (P08637 17-208 limits assumed): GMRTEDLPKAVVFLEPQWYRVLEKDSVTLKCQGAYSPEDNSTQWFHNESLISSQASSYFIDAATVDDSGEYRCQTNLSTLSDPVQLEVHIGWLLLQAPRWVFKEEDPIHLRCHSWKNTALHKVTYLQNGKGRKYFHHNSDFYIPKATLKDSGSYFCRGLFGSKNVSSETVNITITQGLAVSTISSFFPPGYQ

human CD32a H131 = biological target: T6, human CD32a H131 (human, UniProt P12318 36-218, limits assumed); test: SPR, recombinant receptor; reference trastuzumab
T6 sequence (looked up): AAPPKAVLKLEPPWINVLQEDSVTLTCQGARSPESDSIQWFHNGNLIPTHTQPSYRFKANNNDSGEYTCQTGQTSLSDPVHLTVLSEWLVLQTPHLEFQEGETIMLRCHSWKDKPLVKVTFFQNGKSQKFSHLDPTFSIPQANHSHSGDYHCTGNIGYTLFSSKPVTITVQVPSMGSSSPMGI

human CD16b [5] = biological target: T7, human CD16b (human, UniProt O75015 17-200, limits assumed); test: SPR, recombinant receptor; reference trastuzumab
T7 construct: also called FcγRIIIb
T7 sequence (O75015 17-200 limits assumed): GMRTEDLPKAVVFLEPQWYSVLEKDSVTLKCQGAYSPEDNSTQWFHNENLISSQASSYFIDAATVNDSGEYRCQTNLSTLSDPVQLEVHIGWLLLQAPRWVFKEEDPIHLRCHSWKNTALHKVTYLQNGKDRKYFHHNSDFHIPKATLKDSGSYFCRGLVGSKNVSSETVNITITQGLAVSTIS

human CD16a V158 [6] = biological target: T8, human CD16a V158 (human, UniProt P08637 17-208); test: SPR, recombinant receptor; reference trastuzumab
T8 construct: also called hCD16aV; hCD16a V158
T8 sequence (P08637 17-208 F176V limits assumed): as the sequence (P08637 17-208 limits assumed) above, with F160V counted along it

cynomolgus CD16 [7] = biological target: T9, cynomolgus CD16 (cynomolgus, UniProt Q8SPW2 17-208, limits assumed); test: SPR, recombinant receptor; reference trastuzumab
T9 construct: also called Cyno CD16; cynomolgus FcγRIII
T9 sequence (Q8SPW2 17-208 limits assumed): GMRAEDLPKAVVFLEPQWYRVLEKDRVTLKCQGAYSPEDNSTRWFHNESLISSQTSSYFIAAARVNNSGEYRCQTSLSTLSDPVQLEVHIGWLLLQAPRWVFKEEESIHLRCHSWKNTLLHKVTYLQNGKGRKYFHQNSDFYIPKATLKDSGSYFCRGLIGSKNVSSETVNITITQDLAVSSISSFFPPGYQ

human CD32a R131 = biological target: T10, human CD32a R131 (human, UniProt P12318 36-218, limits assumed); test: SPR, recombinant receptor; reference trastuzumab
T10 construct: also called FcγRIIa R131
T10 sequence (looked up): T6 sequence (looked up) with H132R

[8] = biological target: T11, cynomolgus NKG2D (recombinant mFc-tagged dimer) (cynomolgus, UniProt P61252 78-216); test: SPR, kinetics fit, average
T11 construct: also called cyno NKG2D
T11 sequence (looked up): T2 sequence (looked up) with D38N, T128I
Source text: Two different fits were utilized to obtain the equilibrium affinity data: steady state affinity fit and kinetic fit.

cynomolgus FcRn = biological target: T12, cynomolgus FcRn (cynomolgus, UniProt Q8SPV9 24-297; Q8SPW0 21-119); test: SPR, pH 6.0, steady state; pH 6.0; third replicate
T12 construct: also called Cyno FcRn
T12 sequence (Q8SPV9 24-297 limits assumed, chain 1 of 2): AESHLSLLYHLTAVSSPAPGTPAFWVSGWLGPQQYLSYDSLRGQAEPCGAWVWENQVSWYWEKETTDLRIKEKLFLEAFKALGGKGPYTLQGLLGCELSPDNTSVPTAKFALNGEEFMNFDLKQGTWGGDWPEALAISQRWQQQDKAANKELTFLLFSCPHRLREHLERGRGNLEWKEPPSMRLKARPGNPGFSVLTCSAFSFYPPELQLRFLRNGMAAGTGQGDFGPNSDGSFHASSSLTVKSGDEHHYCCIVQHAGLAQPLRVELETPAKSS
T12 sequence (Q8SPW0 21-119 limits assumed, chain 2 of 2): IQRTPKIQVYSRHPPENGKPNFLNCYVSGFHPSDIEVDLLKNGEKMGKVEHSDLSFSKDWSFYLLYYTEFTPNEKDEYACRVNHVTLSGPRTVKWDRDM

human CD16b [9] = biological target: T7, human CD16b; test: SPR, steady state, average
human CD32b [10] = biological target: T4, human CD32b; test: SPR, steady state
[11] = biological target: T1, human BAFF-R expressed on cells; test: KinExA, BAFF-R-CHO cells
[12] = biological target: T1, human BAFF-R expressed on cells; test: flow cytometry, Rs4;11 cells
human FcRn = human FcRn (human, UniProt P55899 24-297; P61769 21-119); test: SPR, pH 6.0, steady state, average; pH 6.0; average of four replicates
[13] = biological target: T11, cynomolgus NKG2D (recombinant …); test: SPR
cynomolgus CD16 [14] = biological target: T9, cynomolgus CD16; test: SPR
[15] = biological target: T1, human BAFF-R expressed on cells; test: flow cytometry, human BAFF-R CHO cells
human CD16a V158 [16] = biological target: T8, human CD16a V158; test: SPR, control
cynomolgus CD16 [17] = biological target: T9, cynomolgus CD16; test: SPR, cynomolgus FcγRIII, summary table
[18] = biological target: T11, cynomolgus NKG2D (recombinant …); test: SPR, 1:1 kinetic fit
Source text: NKG2D is a native dimer, therefore recombinant mFc-tagged NKG2D dimer was used for this experiment. Two different fits were utilized to obtain the equilibrium affinity data: steady state affinity fit and kinetic fit.

human CD16a F158 [19] = biological target: T5, human CD16a F158; test: SPR, steady state, average

Kd [2]: 544 nM
fold difference in binding against trastuzumab (human CD64): < 3 fold
fold difference in binding against trastuzumab (human CD32b [3]): < 1.2 fold
fold difference in binding against trastuzumab (human CD16a F158 [4]): < 3 fold
fold difference in binding against trastuzumab (human CD32a H131): < 1.2 fold
fold difference in binding against trastuzumab (human CD16b [5]): < 3 fold
fold difference in binding against trastuzumab (human CD16a V158 [6]): < 3 fold
fold difference in binding against trastuzumab (cynomolgus CD16 [7]): < 3 fold
fold difference in binding against trastuzumab (human CD32a R131): < 1.2 fold
Kd [8]: 596 nM
Kd (cynomolgus FcRn): 1000 nM
Kd (human CD16b [9]): 6.9 µM
Kd (human CD32b [10]): 5.9 µM and 5.5 µM and 5.8 µM and 6.3 µM
Kd [11]: 2.55 nM
EC50 [12]: 0.09 nM
Max FOB [12]: 4 fold over background
Kd (human FcRn): 1000 nM
koff [13]: 0.11 s⁻¹ and 0.1 s⁻¹
kon [13]: 210000 M⁻¹ s⁻¹ and 200000 M⁻¹ s⁻¹
koff (cynomolgus CD16 [14]): 0.02 s⁻¹ and 0.021 s⁻¹
kon (cynomolgus CD16 [14]): 78000 M⁻¹ s⁻¹ and 72000 M⁻¹ s⁻¹
EC50 [15]: 3.09 nM
Kd (human CD16a V158 [16]): 145 nM
koff (human CD16a V158 [16]): 0.017 s⁻¹
kon (human CD16a V158 [16]): 130000 M⁻¹ s⁻¹
Kd (cynomolgus CD16 [17]): 271 nM
Kd [18]: 498 nM and 516 nM and 528 nM and 525 nM
Kd (human CD16a F158 [19]): 1350 nM
B1: AB1424/AB1612 F3′ TriNKET (bispecific antibody, human IgG1, kappa)
chain: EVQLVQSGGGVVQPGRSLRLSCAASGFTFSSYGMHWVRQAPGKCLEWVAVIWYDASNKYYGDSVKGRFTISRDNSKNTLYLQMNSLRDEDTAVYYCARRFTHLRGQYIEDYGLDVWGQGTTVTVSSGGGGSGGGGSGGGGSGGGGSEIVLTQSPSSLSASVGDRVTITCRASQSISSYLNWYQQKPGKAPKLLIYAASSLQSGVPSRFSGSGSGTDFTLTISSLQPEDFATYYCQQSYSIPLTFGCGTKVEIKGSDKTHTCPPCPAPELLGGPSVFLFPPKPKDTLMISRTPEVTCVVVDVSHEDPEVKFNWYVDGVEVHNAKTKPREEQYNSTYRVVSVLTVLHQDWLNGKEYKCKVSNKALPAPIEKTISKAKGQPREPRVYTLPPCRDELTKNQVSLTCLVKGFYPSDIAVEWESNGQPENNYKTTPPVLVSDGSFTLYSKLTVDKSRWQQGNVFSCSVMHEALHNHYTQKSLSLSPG
heavy: EVQLVESGGGLVKPGGSLRLSCAASGFTFSSYSMNWVRQAPGKGLEWVSSISSSSSYIYYADSVKGRFTISRDNAKNSLYLQMNSLRAEDTAVYYCARGAPIGAAAGWFDPWGQGTLVTVSSASTKGPSVFPLAPSSKSTSGGTAALGCLVKDYFPEPVTVSWNSGALTSGVHTFPAVLQSSGLYSLSSVVTVPSSSLGTQTYICNVNHKPSNTKVDKKVEPKSCDKTHTCPPCPAPELLGGPSVFLFPPKPKDTLMISRTPEVTCVVVDVSHEDPEVKFNWYVDGVEVHNAKTKPREEQYNSTYRVVSVLTVLHQDWLNGKEYKCKVSNKALPAPIEKTISKAKGQPREPQVCTLPPSRDELTENQVSLTCLVKGFYPSDIAVEWESNGQPENNYKTTPPVLDSDGSFFLYSWLTVDKSRWQQGNVFSCSVMHEALHNHYTQKSLSLSPG
light: DIQMTQSPSSVSASVGDRVTITCRASQGISSWLAWYQQKPGKAPKLLIYAASSLQSGVPSRFSGSGSGTDFTLTISSLQPEDFATYYCQQGVSFPRTFGGGTKVEIKRTVAAPSVFIFPPSDEQLKSGTASVVCLLNNFYPREAKVQWKVDNALQSGNSQESVTEQDSKDSTYSLSSTLTLSKADYEKHKVYACEVTHQGLSSPVTKSFNRGEC
notes: Chain S: anti-BAFF-R scFv-CH2-CH3; chain H: anti-NKG2D VH-CH1-CH2-CH3; chain L: anti-NKG2D VL-CL; also called AB1612-002
KHYG-1-CD16a cytotoxicity on BJAB cells, EC50 [1]: 0.03 nM
